In PMC8825603 (Theranostics, 2022):

B1: α41BB-Fab2-GpL (Fab, V domains shown)
VH: QVQLQQSGAEVIKPGASVKLSCKASGYTFSSYWMHWVRQAPGQGLEWIGEINPGNGHTNYNEKFKSRATLTGDTSTSTVYMELSSLRSEDTAVYYCARSFTTARAFAYWGQGTLVTVSS
VL: DIVMTQSPAFLSVTPGEKVTITCRASQTISDYLHWYQQKPDQAPKLLIKYASQSISGIPSRFSGSGSGTDFTFTISSLEAEDAATYYCQDGHSFPPTFGQGTKLEIK
notes: VH of the anti-41BB antibody HBBK4; linker L6; CH1: constant heavy chain of human IgG1, aa 145-260 of GenBank AAA02914.1; numbers count on: GenBank AAA02914.1; VL of the anti-41BB antibody HBBK4; linker L4; constant light chain, aa 105-214 of GenBank BAA97671.1; numbers count on: GenBank BAA97671.1; Bivalent Fab2 format; source: HEK293, transiently transfected (PEI), cell culture supernatant; …
B2: α41BB-N297A-GpL (antibody, V domains shown)
VH: B1 VH
VL: B1 VL
notes: VH of the anti-41BB antibody HBBK4; linker L6; constant heavy chain of human IgG1, aa 145-476 of GenBank AAA02914.1, with N297A (the footnote prints 'A to N mutation at position 327'); VL of the anti-41BB antibody HBBK4; linker L4; constant light chain, aa 105-214 of GenBank BAA97671.1; numbers count on: GenBank BAA97671.1; IgG1(N297A); also called α41BB-IgG1(N297A); source: HEK293, transiently …
B3: αPDL1-N297A-GpL (antibody, V domains shown)
VH: EVQLLESGGGLVQPGGSLRLSCAASGFTFSSYIMMWVRQAPGKGLEWVSSIYPSGGITFYADTVKGRFTISRDNSKNTLYLQMNSLRAEDTAVYYCARIKLGTVTTVDYWGQGTLVTVSS
VL: QSALTQPASVSGSPGQSITISCTGTSSDVGGYNYVSWYQQHPGKAPKLMIYDVSNRPSGVSNRFSGSKSGNTASLTISGLQAEDEADYYCSSYTSSSTRVFGTGTKVTVL
notes: VH of the anti-PDL1 antibody Avelumab; linker L6; constant heavy chain of human IgG1, aa 145-476 of GenBank AAA02914.1, with N297A (the footnote prints 'A to N mutation at position 327'); VL of the anti-PDL1 antibody Avelumab; linker L4; constant light chain, aa 105-214 of GenBank BAA97671.1; numbers count on: GenBank BAA97671.1; IgG1(N297A); also called αPDL1-IgG1(N297A); parental anti-PDL1 …
B4: αCD40-Fab2-GpL (Fab, V domains shown)
VH: QVQLVQSGAEVKKPGASVKVSCTASGFNIKDYYVHWVKQAPGQGLEWMGRIDPEDGDSKYAPKFQGKATMTADTSTSTVYMELSSLRSEDTAVYYCTTSYYVGTYGYWGQGTLVTVSS
VL: DIQMTQSPSSLSASVGDRVTITCSASSSVSYMLWFQQKPGKAPKLLIYSTSNLASGVPSRFSGSGSGTDFTLTISSLQPEDFATYYCQQRTFYPYTFGGGTKVEIK
notes: VH of the anti-CD40 antibody C; linker L6; CH1: constant heavy chain of human IgG1, aa 145-260 of GenBank AAA02914.1; numbers count on: GenBank AAA02914.1; VL of the anti-CD40 antibody C; linker L4; constant light chain, aa 105-214 of GenBank BAA97671.1; numbers count on: GenBank BAA97671.1; Bivalent Fab2 format; source: HEK293, transiently transfected (PEI), cell culture supernatant; copies: 2 + …
B5: αCD40-N297A-GpL (antibody, V domains shown)
VH: B4 VH
VL: B4 VL
notes: VH of the anti-CD40 antibody C; linker L6; constant heavy chain of human IgG1, aa 145-476 of GenBank AAA02914.1, with N297A (the footnote prints 'A to N mutation at position 327'); VL of the anti-CD40 antibody C; linker L4; constant light chain, aa 105-214 of GenBank BAA97671.1; numbers count on: GenBank BAA97671.1; IgG1(N297A); also called αCD40-IgG1(N297A); source: HEK293, transiently …

How the values were obtained:
Assay in all cases: cellular equilibrium binding of GpL (luciferase)-tagged antibody variants; HEK293 cells transiently transfected with a CD40, 41BB or PD-L1 expression plasmid; increasing concentrations of GpL-tagged antibody variants (cell culture supernatants); 37 °C, 1.5 h; washed three times with ice cold PBS; binding to empty vector cells subtracted; one site specific binding fit
Settings in all cases: partners not purified
PDL1 [1] = biological target: T1, PDL1 (UniProt Q9NZQ7)
T1 construct: PDL1, expressed on HEK293 cells from the expression plasmid pCMV6-XL4 (Origene Technologies); also called PD1 Ligand 1; PD1L; source: HEK293, transiently transfected with a PDL1 expression plasmid (pCMV6-XL4, Origene), on cells
T1 sequence (Q9NZQ7 19-290): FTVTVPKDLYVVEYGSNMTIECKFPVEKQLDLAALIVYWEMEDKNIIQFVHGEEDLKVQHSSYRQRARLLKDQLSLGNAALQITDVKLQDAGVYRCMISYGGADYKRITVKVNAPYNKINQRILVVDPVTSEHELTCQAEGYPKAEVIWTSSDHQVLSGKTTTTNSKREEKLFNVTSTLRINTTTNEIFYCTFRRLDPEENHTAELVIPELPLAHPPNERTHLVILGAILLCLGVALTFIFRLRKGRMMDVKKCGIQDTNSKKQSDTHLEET

CD40 = biological target: T2, CD40 (Homo sapiens (species ), UniProt P25942)
T2 construct: CD40, expressed on HEK293 cells from an expression plasmid (gift of Pascal Schneider); also called cluster of differentiation 40; source: HEK293, transiently transfected with a CD40 expression plasmid, on cells
T2 sequence (P25942 21-277): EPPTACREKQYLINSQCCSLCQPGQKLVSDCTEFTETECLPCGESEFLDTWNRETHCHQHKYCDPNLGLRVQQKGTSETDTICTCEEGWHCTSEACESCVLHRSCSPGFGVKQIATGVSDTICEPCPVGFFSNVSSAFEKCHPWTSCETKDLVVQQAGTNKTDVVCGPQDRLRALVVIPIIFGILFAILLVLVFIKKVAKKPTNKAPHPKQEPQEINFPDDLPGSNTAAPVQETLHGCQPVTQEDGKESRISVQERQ

41BB = biological target: T3, 41BB (Homo sapiens (species ), UniProt Q07011)
T3 construct: 41BB, expressed on HEK293 cells from an expression plasmid (gift of Pascal Schneider); source: HEK293, transiently transfected with a 41BB expression plasmid, on cells
T3 sequence (Q07011 24-255): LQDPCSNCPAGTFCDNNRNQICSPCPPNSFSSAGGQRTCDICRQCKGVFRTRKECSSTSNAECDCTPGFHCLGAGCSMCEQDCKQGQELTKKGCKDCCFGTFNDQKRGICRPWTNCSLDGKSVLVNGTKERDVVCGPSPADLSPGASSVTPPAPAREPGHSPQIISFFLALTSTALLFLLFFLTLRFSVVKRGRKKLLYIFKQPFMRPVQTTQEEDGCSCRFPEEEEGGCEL

PDL1 [2] = biological target: T1, PDL1; remark: listed apart in the source

| Binder | binding result (PDL1 [1]) | binding result (PDL1 [2]) | also measured |
| --- | --- | --- | --- |
| B1 | no binding |  |  |
| B2 | no binding |  |  |
| B3 |  |  | binding result (CD40): no binding; binding result (41BB): no binding |
| B4 |  | no binding |  |
| B5 |  | no binding |  |
